The test system of the data set is MS2 coat protein. The data set can be described thus: apparent KD of MS2 coat protein; designed switch direction (-1 OFF switch, 1 ON switch): -1; higher = weaker reporter binding. The procedure, abridged: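 Normalised cluster fluorescence was curve-fitted, and each design's median over clusters is its apparent KD. Before this, SNAP-549-labelled MS2 coat protein was titrated from 0.7 or 1.5 nM, doubling to 3 µM, over RNA switches transcribed on Illumina chips by stalled E. coli RNA polymerase. Titrations had no input, 200 uM small-molecule ligand, or an oligonucleotide input, and steps lasted 0.8–1.5 h (lowest) to 10–20 min (highest).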

[1] abbreviates: input ligand: microRNA oligo, concentration not stated.
Where [2] appears, read: Eterna round: R95, input ligand: FMN 200 uM.
Setting [3] is: Eterna round: R95, input ligand: microRNA oligo, concentration not stated.
Where [4] appears, read: Eterna round: R95, input ligand: none.

On to “UUCCUCAUAACAUGAGGAUCACCCAUGUAUUAUUUGGUAACUGAGGAUAUACUUUUAAUGUUUAUGUAGAAGGCAGAUACAGUU [JR_ExcNG3_Sub017] (Eterna round: R96, puzzle: Exclusion NG 3)”, for which the “apparent KD of MS2 coat protein” value (input ligand: FMN 200 uM) came out at 165 nM, the “apparent KD of MS2 coat protein” value under setting [1] came out at 80.4 nM and the “apparent KD of MS2 coat protein” value (input ligand: none) was determined as 109 nM.
“UUCGUGCAGCAAAGCUGUACGCGUACAUGAGGAUCACCCAUGUAGGAUAUGGUAGGCAAAGCUUACUAGAAGGAUAUGGUGAGC [Mat - Exclusion NG 3 - Mod of JL - D80] (Eterna round: R96, puzzle: Exclusion NG 3)”: the “apparent KD of MS2 coat protein” value worked out at 51.9 nM (input ligand: FMN 200 uM), 36.8 nM under setting [1] and 35.2 nM (input ligand: none).
Regarding “UUCUCGACAUGAGGAUCACCCAUGUAGUGGGAGAAAACUGGUUAGGAUAUAAAAUAGUACACCGUUUAGAAGGGACCUAUCCUC [Eternabot solution 4] (Eterna round: R96, puzzle: Exclusion NG 3)”, the “apparent KD of MS2 coat protein” value is, setting by setting: (input ligand: FMN 200 uM) 79.2 nM; under setting [1], 45.7 nM; (input ligand: none) 72.3 nM.
Consider “UUGAUUCAUUCCUCUAUAAACAUGAGGAUCACCCAUGUAAGUGAGGAUAUAGUUGGAGUUGUAUACUAGAAGGCACUUAGUUUU [JR_ExcNG3_Sub048] (Eterna round: R96, puzzle: Exclusion NG 3)”, for which the “apparent KD of MS2 coat protein” value was found to be 26 nM (input ligand: FMN 200 uM), 8.29 nM under setting [1] and 13 nM (input ligand: none).
Taken in the same sequence, the figures for “UUGCAGUCGUCAGGAUAUAGUAUUACGGCCUUUUAUUUUUUCAUACAUGAGGAUCACCCAUGUCGCUAGAAGGGAUUAUCGAUU [salish99_ExNG2_r04_104] (Eterna round: R96, puzzle: Exclusion NG 2)” were 39.6 nM, 31.6 nM and 41.4 nM.
For the sequence “UUGCCACAUGAGGAUCACCCAUGUGAGGAUAUGGCCCGCCCGGCGUGUGCUGGUUCUGUCAGAAGGCGCGUGGG [salish99_ex1_r4_030] (Eterna round: R97, puzzle: Exclusion 1)”, the “apparent KD of MS2 coat protein” value runs as follows: (input ligand: FMN 200 uM) 73 nM; (input ligand: none) 33.1 nM.
Regarding “UUGCUUUCUUAGUACUCUAUAAGUUUUUUGUUCGUUUUAACAUGAGGAUCACCCAUGUCUAGUGGAUCUGAUCGGGU [JL ViennaUCT Isreen mod 7] (puzzle: Sensor v3, turn-off variant 2)”, the “apparent KD of MS2 coat protein” value was found to be 150 nM under setting [2], 303 nM under setting [3] and 163 nM under setting [4].
On to “UUGGAACAUGAGGAUCACCCAUGUCAGGAUAUUCCAAAAUCGUCGAAAGACGAUAACAGAAGAAGGGACAUUAG [Fiskxlusion 9 - Jieux - Exclusion 1] (Eterna round: R97, puzzle: Exclusion 1)”, for which the “apparent KD of MS2 coat protein” value came to 124 nM (input ligand: FMN 200 uM) and 80.2 nM (input ligand: none).
For “UUGUACCGGUGAGGAUAUCGUUGAUAGAACUUUAUGAUAUACAUGAGGAUCACCCAUGUUACUUUCGAGAAGGCAUCGGAUUAU [ExNG2 6th] (Eterna round: R96, puzzle: Exclusion NG 2)”, the “apparent KD of MS2 coat protein” value (input ligand: FMN 200 uM) turned out to be 12.3 nM, the “apparent KD of MS2 coat protein” value under setting [1] came to 10.3 nM and the “apparent KD of MS2 coat protein” value (input ligand: none) came to 21.8 nM.
In the case of “UUGUUACAUGAGGAUCACCCAUGUGAGGAUAUGGUUCAGUACUGUCAUGUCACGUACUCCAGAAGGCACAUGUU [1st #31] (Eterna round: R97, puzzle: Exclusion 1)”, the “apparent KD of MS2 coat protein” value came to 363 nM (input ligand: FMN 200 uM) and 120 nM (input ligand: none).
As to “UUGUUAUGUGUAGGAUAUGCAUAUUAUUAUUAUGCAGAAGGACAUGAGGAUCACCCAUGUAUAUUAUUAUUAUAUGUUAUAUAU [Title] (Eterna round: R96, puzzle: Exclusion NG 1)”, the “apparent KD of MS2 coat protein” value by setting is: (input ligand: FMN 200 uM) 29.3 nM; under setting [1], 19 nM; (input ligand: none) 22.8 nM.
For “UUGUUAUGUGUAGGAUAUGCGUGUUAUUAUUAUGCAGAAGGACAUGAGGAUCACCCAUGUGUAUUGUUAUUAUAUAUUAUAUAU [Title] (Eterna round: R96, puzzle: Exclusion NG 1)”, the “apparent KD of MS2 coat protein” value (input ligand: FMN 200 uM) amounted to 21 nM, the “apparent KD of MS2 coat protein” value under setting [1] was found to be 13.2 nM and the “apparent KD of MS2 coat protein” value (input ligand: none) stood at 20.8 nM.
In the case of “UUGUUUUUUGAGGAUAUGCGACGUUUUUUCGUCGUAGAAGGCGAUACAUGAGGAUCACCCAUGUUUAUGGGCAU [LRO-Ex6-14] (puzzle: Exclusion 6)”, the “apparent KD of MS2 coat protein” value under setting [3] is 122 nM.
For the sequence “UUUAAGGGAAUUAAGAUCACAUGAGGAUCACCCAUGUAUAUAUAGGAUAUCAGCUCGAUUAGAGCUGAGAAGGAUAUAUACAUA [ExNG3/6-A1] (Eterna round: R96, puzzle: Exclusion NG 3)”, the “apparent KD of MS2 coat protein” value reads like this: (input ligand: FMN 200 uM) 126 nM; under setting [1], 79.7 nM; (input ligand: none) 165 nM.
As for “UUUAAUUGUCACAUGGGUGACAUGAGGAUCACCCAUGUCACAAGCUUUUUGCUCGUCUUAUAAUUAACCCAUGUGAC [Stov1/12-A1] (Eterna round: R97, puzzle: Sensor, turn-off variant 1)”, the “apparent KD of MS2 coat protein” value is, setting by setting: (input ligand: FMN 200 uM) 13.4 nM; (input ligand: none) 13.7 nM.
For “UUUAAUUGUCAGAUGGGUGACAUGAGGAUCACCCAUGUCACAAGCUUUUUGCUCGUCUUAUAAUUAACCCAUCUGAC [Stov1/11-A1] (Eterna round: R97, puzzle: Sensor, turn-off variant 1)”, the “apparent KD of MS2 coat protein” value reads like this: (input ligand: FMN 200 uM) 13.5 nM; (input ligand: none) 12.3 nM.
On to “UUUAAUUUAAUUAAGAUCACAUGAGGAUCACCCAUGUAAUUAUAGGAUAUCAGCUCGUGUAGAGCUGAGAAGGAUAAUUACAUA [ExNG3/5-A3] (Eterna round: R96, puzzle: Exclusion NG 3)”, for which the “apparent KD of MS2 coat protein” value turned out to be 81.9 nM (input ligand: FMN 200 uM), 58.2 nM under setting [1] and 72.7 nM (input ligand: none).
Turning to “UUUAAUUUUUUUUUUUUACAAGCUUUUUGCUCGUCUUAUACAUGAGGAUCACCCAUGUGGGUAAAGGGUAAAUUAUC [JMF 80] (puzzle: Sensor v3, turn-off variant 2)”, the “apparent KD of MS2 coat protein” value is, setting by setting: under setting [2], 23 nM; under setting [3], 50.9 nM; under setting [4], 20.9 nM.
For “UUUACAAGCUAUUGAUCCCACAUGAGGAUCACCCAUGUUCCUGGCCGUGAGGCUAGGUAAACAAUUGCUCGUCUUAU [JL TOV1 3.69] (Eterna round: R97, puzzle: Sensor, turn-off variant 1)”, the “apparent KD of MS2 coat protein” value by setting is: (input ligand: FMN 200 uM) 903 nM; (input ligand: none) 1370 nM.
As for “UUUACAAGCUUAUGAUCCCACAUGAGGAUCACCCAUGUUGCUGCCGGUGACGGUAGCAUAACAUAUGCUCGUCUUAU [JL TOV1 3.57] (Eterna round: R97, puzzle: Sensor, turn-off variant 1)”, the “apparent KD of MS2 coat protein” value came to 1570 nM (input ligand: FMN 200 uM) and 1840 nM (input ligand: none).
With “UUUAGUUUAGGAUAUGUAGACAUUAACAUGAGGAUCACCCAUGUAGAUCCUGAAUUGGCUACAGAAGGAAGCAUUU [Mod of Brourd 11 - Jieux - Exclusion 5] (Eterna round: R97, puzzle: Exclusion 5)”, the “apparent KD of MS2 coat protein” value reads like this: (input ligand: FMN 200 uM) 168 nM; (input ligand: none) 354 nM.
Taken in the same sequence, the figures for “UUUAGUUUAGGAUAUGUAGAUUUUAACAUGAGGAUCACCCAUGUAGAUCCUGAAUUAACUACAGAAGGGAACAUUU [Mod of Brourd 14 - Jieux - Exclusion 5] (Eterna round: R97, puzzle: Exclusion 5)” were 124 nM and 154 nM.
“UUUAUGUAAGGAUAUAUGGGUUUAAAUGAAAAUUUGGGCCCAUAGAAGGUACAUGAGGAUCACCCAUGUAGUGG [-24.4, -24.3 kcal, 32% A] (Eterna round: R97, puzzle: Exclusion 4)”: the “apparent KD of MS2 coat protein” value came to 474 nM (input ligand: FMN 200 uM) and 641 nM (input ligand: none).
As to “UUUCCACAUGAGGAUCACCCAUGUCAGGAUAUUAUAGUUGGCCGAAAGGCGUCAGUGGUAAGAAGGGACGUUGA [Eternabot (L2) Solution 46] (Eterna round: R97, puzzle: Exclusion 1)”, the “apparent KD of MS2 coat protein” value (input ligand: FMN 200 uM) came to 16.1 nM and the “apparent KD of MS2 coat protein” value (input ligand: none) was 15.8 nM.
Regarding “UUUCUUCAUAUCACAUGAGGAUCACCCAUGUUAUUCAUCGCGUAGGAUAUCGAGAAUUUUAAAUACGAGAAGGACGUAUUGAUA [JR_ExcNG3_Sub072] (Eterna round: R96, puzzle: Exclusion NG 3)”, the “apparent KD of MS2 coat protein” value (input ligand: FMN 200 uM) was determined as 43.4 nM, the “apparent KD of MS2 coat protein” value under setting [1] came out at 31.1 nM and the “apparent KD of MS2 coat protein” value (input ligand: none) is 38.8 nM.
Consider “UUUGUUGUUGUGAGGAUAUACUGUUUGUUUUGUUUGUAGAAGGUACAUGAGGAUCACCCAUGUUGGUUGUUUUU [JR_BME4_Sub030] (puzzle: Brourd's mod of Exclusion 4)”, for which the “apparent KD of MS2 coat protein” value under setting [3] amounted to 24.3 nM.
For the sequence “UUUGUUGUUGUGAGGAUAUCGUAGUUAUUUUGUAACGAGAAGGCACAUGAGGAUCACCCAUGUUUUUUGAUGGU [JR_BMOE4_Sub063] (puzzle: Brourd's mod of Exclusion 4)”, the “apparent KD of MS2 coat protein” value under setting [3] was 24.9 nM.
With “UUUGUUUUGCAAGGAUAUGUUUAAUUUUAGUUUCCUUACACAUGAGGAUCACCCAUGUUAUACUUACAGAAGGUGCGUAAUUUU [Excl-NG2-LRO02] (Eterna round: R96, puzzle: Exclusion NG 2)”, the “apparent KD of MS2 coat protein” value under setting [1] stood at 104 nM.
As for “UUUUAACAUGAGGAUCACCCAUGUGAGGAUAUCCUAUUUUUUUUUUUUUUUUUUUUUUGGAGAAGGCACAUUUU [My solution] (puzzle: Exclusion 1)”, the “apparent KD of MS2 coat protein” value amounted to 23.1 nM under setting [2], 38.3 nM under setting [3] and 7.45 nM under setting [4].
As for “UUUUAACAUGAGGAUCACCCAUGUGAGGAUAUCGAAAUUUAUAUUAAUAUUAAUAAUACGAGAAGGCACAUUUU [JMF 22] (puzzle: Exclusion 1)”, the “apparent KD of MS2 coat protein” value under setting [3] was determined as 71 nM.

Source of the values: the supplement of paper PMC9170038.
